Molecular target: T1, bacteriophage phi29 DNA packaging ATPase gp16 (bacteriophage phi29), P11014
T1 chain: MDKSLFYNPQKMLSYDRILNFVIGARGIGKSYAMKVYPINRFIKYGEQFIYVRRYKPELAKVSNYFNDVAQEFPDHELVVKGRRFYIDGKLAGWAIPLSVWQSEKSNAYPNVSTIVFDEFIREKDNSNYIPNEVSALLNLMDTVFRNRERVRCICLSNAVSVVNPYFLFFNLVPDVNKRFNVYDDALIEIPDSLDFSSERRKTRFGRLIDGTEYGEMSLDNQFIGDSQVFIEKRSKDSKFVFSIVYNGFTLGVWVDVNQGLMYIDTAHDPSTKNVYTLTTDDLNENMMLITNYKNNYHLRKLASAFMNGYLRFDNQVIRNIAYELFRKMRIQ
Experiment: cryo-EM structure
Details: remark: other sources report otherwise

B1: bacteriophage phi29 DNA packaging ATPase gp16, P11014 1-332 (enzyme)
chain: T1 chain
B1 gave a stoichiometry N of 5.

Source: publication PMC8104870
